From US20050201999A1

Molecular target: TcpJ, type 4 prepilin peptidase of Vibrio cholerae (wild-type) (Vibrio cholerae)

Aprotinin (from UniProt P00974)
% Cleavage of TcpA prepilin by TcpJ in the in vitro cleavage assay: 100%
